Where a chain is given by its changes, count along the chain named. In names and notes the source's numbering stands.
B1: VvROMT variant W20A (enzyme, Vitis vinifera, UniProt B6VJS4 1-357, looked up)
chain: MDLANGVISAELLHAQAHVANHIFNFIKSMSLKCAIQLGIPDIIHNHGKPMTLPELVAKLPVHPKRSQCVYRLMRILVHSGFLAAQRVQQGKEEEGYVLTDASRLLLMDDSLSIRPLVLAMLDPILTKPWHYLSAWFQNDDPTPFHTAYERSFWDYAGHEPQLNNSFNEAMASDARLLTSVLLKEGQGVFAGLNSLVDVGGGTGKVAKAIANAFPHLNCTVLDLSHVVAGLQGSKNLNYFAGDMFEAIPPADAILLKWILHDWSNEECVKILKRCREAIPSKENGGKVIIIDMIMMKNQGDYKSTETQLFFDMTMMIFAPGRERDENEWEKLFLDAGFSHYKITPILGLRSLIEVYP
notes: resveratrol O-methyltransferase (VvROMT), Vitis vinifera, GenBank FM178870, with W20A; made by Gibson Assembly on pET25-GB1-ROMT; source: E. coli BL21 (DE3), purified (IMAC HisTrap FF, TEV cleavage, second IMAC); not shown: His tag (on GB1), N-terminal, cleaved; GB1, N-terminal, cleaved
B2: VvROMT variant F24A (enzyme, Vitis vinifera, UniProt B6VJS4 1-357, looked up)
chain: B1 chain with A20W, F24A
notes: resveratrol O-methyltransferase (VvROMT), Vitis vinifera, GenBank FM178870, with F24A; made by Gibson Assembly on pET25-GB1-ROMT; source: E. coli BL21 (DE3), purified (IMAC HisTrap FF, TEV cleavage, second IMAC); not shown: His tag (on GB1), N-terminal, cleaved; GB1, N-terminal, cleaved

Molecular target: the molecule itself
Experiment: SEC; Superdex 75 10/300 GL, 50 mM Tris-HCl pH 7.5, flow 0.5 mL/min; protein at 2 µg/µL, 150 to 300 µL; column calibrated with LMW Gel Filtration kit

Row | Protein | stoichiometry N
1 | B1 | 2
2 | B2 | 2
